Experimental data from IntAct's records for PubMed 20696164.

B1: E3 ubiquitin-protein ligase SH3RF1 (Homo sapiens), Q7Z6J0 (parent)
chain: MDESALLDLLECPVCLERLDASAKVLPCQHTFCKRCLLGIVGSRNELRCPECRTLVGSGVEELPSNILLVRLLDGIKQRPWKPGPGGGSGTNCTNALRSQSSTVANCSSKDLQSSQGGQQPRVQSWSPPVRGIPQLPCAKALYNYEGKEPGDLKFSKGDIIILRRQVDENWYHGEVNGIHGFFPTNFVQIIKPLPQPPPQCKALYDFEVKDKEADKDCLPFAKDDVLTVIRRVDENWAEGMLADKIGIFPISYVEFNSAAKQLIEWDKPPVPGVDAGECSSAAAQSSTAPKHSDTKKNTKKRHSFTSLTMANKSSQASQNRHSMEISPPVLISSSNPTAAARISELSGLSCSAPSQVHISTTGLIVTPPPSSPVTTGPSFTFPSDVPYQAALGTLNPPLPPPPLLAATVLASTPPGATAAAAAAGMGPRPMAGSTDQIAHLRPQTRPSVYVAIYPYTPRKEDELELRKGEMFLVFERCQDGWFKGTSMHTSKIGVFPGNYVAPVTRAVTNASQAKVPMSTAGQTSRGVTMVSPSTAGGPAQKLQGNGVAGSPSVVPAAVVSAAHIQTSPQAKVLLHMTGQMTVNQARNAVRTVAAHNQERPTAAVTPIQVQNAAGLSPASVGLSHHSLASPQPAPLMPGSATHTAAISISRASAPLACAAAAPLTSPSITSASLEAEPSGRIVTVLPGLPTSPDSASSACGNSSATKPDKDSKKEKKGLLKLLSGASTKRKPRVSPPASPTLEVELGSAELPLQGAVGPELPPGGGHGRAGSCPVDGDGPVTTAVAGAALAQDAFHRKASSLDSAVPIAPPPRQACSSLGPVLNESRPVVCERHRVVVSYPPQSEAELELKEGDIVFVHKKREDGWFKGTLQRNGKTGLFPGSFVENI
B2: E3 ubiquitin-protein ligase SH3RF3 (Homo sapiens), Q8TEJ3 (parent)
chain: MLLGASWLCASKAAAAAAQSEGDEDRPGERRRRRAAATAAGAGEDMDESSLLDLLECSVCLERLDTTAKVLPCQHTFCRRCLESIVCSRHELRCPECRILVGCGVDELPANILLVRLLDGIRQRPRAGTSPGGSPPARPIPGQSAAPTLAGGGGGAAGSTPGSPVFLSAAAGSTAGSLRELATSRTAPAAKNPCLLPYGKALYSYEGKEPGDLKFNKGDIIVLRRKVDEQWYHGELHGTQGFLPASYIQCIQPLPHAPPQGKALYDFEMKDKDQDKDCLTFTKDEILTVLRRVDENWAEGMLGDKIGIFPLLYVELNDSAKQLIEMDKPCPAAASSCNASLPSDSGAVASVAPSPTLSSSGAVSAFQRRVDGKKNTKKRHSFTALSVTHRSSQAASHRHSMEISAPVLISSSDPRAAARIGDLAHLSCAAPTQDVSSSAGSTPTAVPRAASVSGEQGTPPKVQLPLNVYLALYAYKPQKSDELELHKGEMYRVLEKCQDGWFKGASLRTGVSGVFPGNYVTPVSRVPAGGAGPPRNNVVGGSPLAKGITTTMHPGSGSLSSLATATRPALPITTPQAHAQHPTASPPTGSCLRHSAQPTASQARSTISTAAHSAAQAQDRPTATVSPLRTQNSPSRLPATSLRPHSVVSPQHSHQPPVQMCPRPAIPLTSAASAITPPNVSAANLNGEAGGGPIGVLSTSSPTNTGCKLDEKKSEKKEKKSGLLKLLAGASTKKKSRSPPSVSPTHDPQVAVDALLQGAVGPEVSSLSIHGRAGSCPIESEMQGAMGMEPLHRKAGSLDLNFTSPSRQAPLSMAAIRPEPKLLPRERYRVVVSYPPQSEAEIELKEGDIVFVHKKREDGWYKGTLQRNGRTGLFPGSFVESF

Variants of: B1
Conditions: with ubc_human UBC

For C28A, which “effect of a mutation on the interaction” value is on record?
Its value is “decreasing interaction”.

How did the “effect of a mutation on the interaction” value turn out when H30A was run?
The value was “decreasing interaction”.

Variants of: B2
Conditions: with rac1_human RAC1, P63000

Which “effect of a mutation on the interaction” value does the source give for P406A here?
The value was “disrupting interaction”.

I403N was tested. Which “effect of a mutation on the interaction” value did it give?
The value was “disrupting interaction”.

S404P was tested. Which “effect of a mutation on the interaction” value did it give?
The value was “disrupting interaction”.

Variants of: B2
Conditions: with rac1_human RAC1, P63000
Remark: another data set of the same source

For P414A, which “effect of a mutation on the interaction” value is on record?
The value was “decreasing interaction”.

Variants of: B2
Conditions: with ubc_human UBC

How did the “effect of a mutation on the interaction” value turn out when C73A was run?
Its value is “decreasing interaction”.

How did the “effect of a mutation on the interaction” value turn out when H75A was run?
Its value is “decreasing interaction”.

Variants of: B2
Conditions: with rac1_human RAC1, P63000
Remark: another data set of the same source

With L385A as the variant, how does the “effect of a mutation on the interaction” value read?
The value was “decreasing interaction”.
